Experiment: yeast display, Sf9 membrane polyspecificity reagent, FACS + sequencing; frameworks hold sequencing errors
Outline: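 Genes from sorted yeast were amplified by colony PCR, read by MiSeq 2 × 250 sequencing and filtered on CDR length. These cells carried a synthetic nanobody library in Saccharomyces cerevisiae BJ5465 and were sorted by FACS into low and high (top ~1%) gates on anti-HA and streptavidin fluorescence. Polyreactivity is labelled according to the gate of origin.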

Sequence	polyreactivity (PSR sort gate)
QVQLVESGGGLVQAGGSLRLSCAASGSTFVYYAMGWYRQAPGKERELVAAITSGDSTYYADSVKGRFTISRDNAKNTVYLQMNSLKPEDTAVYYCAKRGGYKWIYGYWGQGTQVTVSS	low polyreactivity
QVQLVESGGGLVQAGGSLRLSCAASGSTFVYYAMGWYRQAPGKETEFVAAISISSGSTYYADSVKGRFTISRDNAKNTVYLQMNSLKPEDTAVYYCAVDWFLGGYDDLDYWGQGTQVTVSS	low polyreactivity
QVQLVESGGGLVQAGGSLRLSCAASGSTFWANALGWYRQAPGKERELVAGITWNAGSTYYADSVKGRFTISRDNAKNTVYLQMNSLKPEDTGVYYCAAYYHFQGWGPGYNSWGQGTQVTVSS	low polyreactivity
QVQLVESGGGLVQAGGSLRLSCAASGSTFWANAMGWYRQAPGKEREIVATISWSDGSTYYAASVKGRFTISRDNAKNTVYLQRNSLNPEDTAVYYCASDVVRFFTYKYDDWGQGTQVTVSS	low polyreactivity
QVQLVESGGGLVQAGGSLRLSCAASGSTFWANAMGWYRQAPGKERELVAAITTSGASTYYADSVKGRFTISRDNAKNTVYLQMNSLKPEDTAVYYCAADYDSYYWYNYWGQGTQVTVSS	low polyreactivity
QVQLVESGGGLVQAGGSLRLSCAASGSTFWEYAMGWYRQGPGTERELVAAISSSGGSTYYADSVKGRFTISRDNAKNTVYLQMNSLKPEDTAVYYCAARYSWRRAGYYYWGQGTQVTVSS	high polyreactivity
QVQLVESGGGLVQAGGSLRLSCAASGSTFWFNAMGWYRQAPGKERELVAAISSTGSTNYADSVKGRFTISRDNSKNTVYLQMNSLKPEDTAVYYCATQEGPHKLDPRGYYWGQGTQVTVSS	low polyreactivity
QVQLVESGGGLVQAGGSLRLSCAASGSTFWFNGMGWYRQAPGKERELVAVITFSTGSTSYADSVKGRCTISRDDAKNTVYLQMNSLKPEDTAVYYCAAEYVIYYWFEWLDLDYWGQGTQVTVSS	high polyreactivity
QVQLVESGGGLVQAGGSLRLSCAASGSTFWFYTMGWYRQAPGKERELVATITSGGSTNYADSVKGRFTISRDNAKNTVYLQMNSLKPEDTAVYYCAASSVLTNHDYWGQGTQVTVSS	low polyreactivity
QVQLVESGGGLVQAGGSLRLSCAASGSTFWINAMGWYRQAPGKERELVADISHSAGNTYYADSVKGRFTISRDNAKNTVYLQMNSLKPEDTAVYYCAARRWGVRSGDYYWGQGTQVTVSS	low polyreactivity
QVQLVESGGGLVQAGGSLRLSCAASGSTFWKYVMGWYRQAPGKERELVAAIDTGASTNYADSVKGRFTISRDNAKYTVYLQMNSLKPEDTAVYFCNAELWYGPDELTGDYWGQGTQVTVSS	low polyreactivity
QVQLVESGGGLVQAGGSLRLSCAASGSTFWLYAMGWYRQAPGKERELVAAIRSGDRTNYADSVKGRFTISRDNAKNTVYLQMNSLKPEDTAVYYCAAVAYLNWTPHYYWGQGTQVTVSS	low polyreactivity
QVQLVESGGGLVQAGGSLRLSCAASGSTFWPYAMGWYRQAPGKERELVAAISSSGGSTYYADSVKGRFTISRDNAKNTVYLQMNSLKPEDTAVYYCNKDYHRPYGGGSKGDYWGQGTLVTVSS	low polyreactivity
QVQLVESGGGLVQAGGSLRLSCAASGSTFWPYAMGWYRQAPGKERELVARINSGGNTNYADSVKGRFTISRDNAKNTVYLQMNSLKPEDTAVYYCAVRSLYEPRVYYRWVVGDGNYWGQGTQLTVSS	low polyreactivity
QVQLVESGGGLVQAGGSLRLSCAASGSTFWPYAMGWYRQAPGKEREMVAAITWRGGRTYYADTVKGRFTISRDNAQNTVYLQMNSLKPEDTAVSYCNTGPWSRSWSQKYEYWGQGTQVTVSS	high polyreactivity
QVQLVESGGGLVQAGGSLRLSCAASGSTFWPYTMGWYSQAPGKERELVAAISLSGGSTYYADSVKGRFTISRDIAKNTVYLQMNSLKPEDTAVYYCAAEGGYQNWHYLYDYWGQGTQVTVSS	low polyreactivity
QVQLVESGGGLVQAGGSLRLSCAASGSTFWSYTMGWYRPAPGKERELVARIRTTGGSTYADSVKGRFTISRDNAKNTVYLQMNSLKPEDTAVYDCAKEGWLRYYPWYGGDYWGQGTLVTVSS	high polyreactivity
QVQLVESGGGLVQAGGSLRLSCAASGSTFWTNAMGWYRQAPGKERELVAGITDTDNHELRRLCEGRFTISRDNAKNTVYVQMNSLKPEDTAVYYCNADDTYYPLGGITGYDYWGQGTQVTVSS	low polyreactivity
QVQLVESGGGLVQAGGSLRLSCAASGSTFWVYTMGWYRQAPGKEREFVAAISSGVGSTHYADSVKGRFTLSRDNAKNTVYLNMNSLKPEDTAVYYCAAESYYVYLGWLEYWGQGTQVTVSS	high polyreactivity
QVQLVESGGGLVQAGGSLRLSCAASGSTFWWYAMGWYRQAPGKERELVATISWSTGSTYYADSVKGRFTISRDNAKNTVYLQMNSLKPEDTAVYYCNARIFYLFPGNSWSSSDYDYWGQGTQVTVSS	low polyreactivity
QVQLVESGGGLVQAGGSLRLSCAASGSTFWYNAMGWYRPAPGKERELVAAITWSGGSTYYADSVKGRFTISRDNAKNTVYLQMNSLKPEDTAVYYCAADHSAYSVFSGYKYGYWGQGTQVTVSS	low polyreactivity
QVQLVESGGGLVQAGGSLRLSCAASGSTFWYNGMGWYRQAPGKERELVAAINWSGDSTYYADSVKGRFTISRDNAKNTVYLQMNSLKPEDTAVFYCAGGYYTYSRRSSFFVAYGYWGLGTQVTVSS	low polyreactivity

Sequence	polyreactivity (PSR sort gate)
QVQLVESGGGLVQAGGSLRLSCAASGSTFWYSDMGWYRQARGKDRELVAAISGSGGRTYYADSVKGRFTISRDNAKNTVYIQMNSLKPEDTAVYYCAADDYWSADFKYNYWGQGTQVTVSS	low polyreactivity
QVQLVESGGGLVQAGGSLRLSCAASGSTFWYYAMGWYRQAPGKERELVAAITSSGSTYYADSVKGRFTISRDNAKNTVYLQMNRLKPEDTAVYYCAAEQWYCYGSYDYWGQVTQVTVSS	high polyreactivity
QVQLVESGGGLVQAGGSLRLSCAASGSTFWYYAMGWYRQAPGKERELVAAITTGGDTTNYADSVKGRFTISRDNAKNNVYLQMNSLKPADTAVYYCARDTGYDLIVLPDDSWGQGTQVTVSS	low polyreactivity
QVQLVESGGGLVQAGGSLRLSCAASGSTFYANAMGWYRQAPGKERELVAAISWRGGSTYYADSVKGRFTISRDNAKNTVYLQMNSLKPEDTAVYYCNRVQRYIRHGDYWGQGTQVTVSS	high polyreactivity
QVQLVESGGGLVQAGGSLRLSCAASGSTFYAYAMGWYRQAPGKERELVAAIDSGGSTYYADSVKGRFTISRDNAKNTVYLQMNSLKPEDTAVYYCAVRHRYTRAYWGRVYWGQGTQVTVSS	low polyreactivity
QVQLVESGGGLVQAGGSLRLSCAASGSTFYAYDMGWYRQAPGKEREWVAAISRSGGNTYYADSVKGRFTISRDYAKNTVYLQMNSQKPEDTAVYYCNARSSVYGHRKGSARIPRYDYWGQGTQVTVSS	high polyreactivity
QVQLVESGGGLVQAGGSLRLSCAASGSTFYDYAMGWYRQAPGKERELVASIDSGDSTNYADSVKGRFTISRDNAKNTVYLQMNSLKPEDTAVYYCAADYQNTGARYWYYYWGQGTQVTVSS	low polyreactivity
QVQLVESGGGLVQAGGSLRLSCAASGSTFYFNAMGGYRQSPGKERELVAVIDGSGGFTYYADSVKGRFTISRDNAKNTVYLQMNSLKQEVTAVYDCNADLVYNTFLYSGGDEYDYWGQGTQVTVSS	high polyreactivity
QVQLVESGGGLVQAGGSLRLSCAASGSTFYFNAMGWSRQAPGKERELVAGISSGGSTYYADSVKGRFTISRDNAKNTVYLQMNSLKPEDTAVYYCAATWLVERPVSYTEYGYWGQGTQVTVSS	low polyreactivity
QVQLVESGGGLVQAGGSLRLSCAASGSTFYFNAMGWYRQAPGKERELVAGIRYSGSSTYYADSVKGRFTISRDNAKNTVYLQMNSLKPEDTAVYYCAARYSVYPRVSKYSYRFNYWGQGNQVTVSS	high polyreactivity
QVQLVESGGGLVQAGGSLRLSCAASGSTFYFNAMGWYRQAPGKERELVAGIYSGGSTYYADSVKGRFTISRDNAKNTVYLQMNSLKTEDTAVYYCAATWLVERPFSYTEYGYWGQGTQVTVSS	low polyreactivity
QVQLVESGGGLVQAGGSLRLSCAASGSTFYFNAMGWYRQAPGKERELVAVIDGSGGFTYDADSVKGRFTISRDNAKNTVYLQMNSLKPEDTAVYYCNADLVYNTFIYSGGDEYDYWGQGTQGTVSS	high polyreactivity
QVQLVESGGGLVQAGGSLRLSCAASGSTFYFNSMGWYRQAPGKERELVAAITSGARTKYADSVKGRFTMSRDNAKITVYLQMNSLKPEDTAVYYCSASGLYYYRYRYYYWGQGTQVTVSS	high polyreactivity
QVQLVESGGGLVQAGGSLRLSCAASGSTFYFYAMGGYRQAPGKERELVAVISSGGRTYYADSVKGRFTISRDNAKNTVYLQMNSLKPEDTAVYYCAASWPSSLTYYYWGQGTQVTVSS	low polyreactivity
QVQLVESGGGLVQAGGSLRLSCAASGSTFYFYAMGWYRQAPGKEREFVAAITASGGSTYYADSVKGRFTISRDNAKNTVYLQMNSLKPEDTAVYYCAARFSYWKTKRAYDWGQGTQVTVSS	high polyreactivity
QVQLVESGGGLVQAGGSLRLSCAASGSTFYFYAMGWYRQAPGKERELVATITTRGGSTYYADSVKGRFTISRDHAKNTLDLQMNILKPEDTAVYYCAREAWYKSYSRIKFGYWGQGTQVTVSS	high polyreactivity
QVQLVESGGGLVQAGGSLRLSCAASGSTFYFYVMGWYRQAPGKERELVARISWSGGSTYYADSVKGRFTISRDNAKNTVYLQMNSLKPEDTAVYYCARQYKYPSSGEYDSWGQGTQVTVSS	low polyreactivity
QVQLVESGGGLVQAGGSLRLSCAASGSTFYGKAMGWYRQAPGKRELLAAITWSGGSTYYADSVKGRFTISRDNAKNTVYLQMNSLKPEDTAVYYCAARNPKSGYNYWGQGTQVTVSS	low polyreactivity
QVQLVESGGGLVQAGGSLRLSCAASGSTFYGYAMGWSRQAPGKERELDAVINYRGDRTYYADSVKGRFTISRDNAKNTVYLQMNSLKPEDTAVYYCAARYRVYYLPGYEYWGQGTQVTVSS	high polyreactivity
QVQLVESGGGLVQAGGSLRLSCAASGSTFYGYAMGWSRQAPGKERELVAAISSSGSRTYYADSVKGRFTISRDNANNPVYLQMNSLKPEDTAVYYCAAVSTLLYYHYYTRDYWGQGTEVTVSS	high polyreactivity
QVQLVESGGGLVQAGGSLRLSCAASGSTFYGYAMGWYRQAPGKERELVAAITRSGGSTYYADSVKGRFTISRDNAKNTVYLQMNSLKPEDSEVYYCNKYGYKGGVGYDYWGQGTEVTVSS	high polyreactivity
